Test results: patent US20110135644A1 (ESBATECH AN ALCON BIOMEDICAL RESEARCH UNIT, published 2011)

Molecular target: T1, human TNF-alpha (Peprotech, London, UK) (human, UniProt P01375 77-233)
T1 construct: Commercial recombinant protein
Assay: direct ELISA, plates coated with 0.5 µg/ml human TNF-alpha; ESBA105 standard series 50-0.5 ng/ml; used to quantify ESBA105 in serum and brain tissue
Method: ESBA105 concentrations were determined by triplicate measurements of each sample in a direct ELISA. 96-well plates (NUNC MaxiSorp; Omnilab, Mettmenstetten, Switzerland) were coated with 0.5 μg/ml human TNF-alpha (Peprotech, London, UK) in PBS overnight at 4° C. Between each of the following steps plates were washed three times with TBS-T (0.005% Tween20; Axon Lab, Baden-Dattwyl, Switzerland) using a micro plate washer (ASYS Atlantis, Salzburg, Austria). Unspecific binding sites were saturated by 1.5 hour incubation in PBS/1% BSA/0.2% Tween20. […] Bound ESBA105 was detected with a biotinylated affinity purified polyclonal rabbit anti-ESBA105 antibody (AK3A, ESBATech, Schlieren, Switzerland) that was diluted 1:20′000 in dilution buffer (1.5 h, room temperature). AK3A, in turn, was detected with poly-horseradish peroxidase streptavidin (Stereospecific Detection Technologies, Baesweiler, Germany) at a concentration of 0.2 ng/ml dilution buffer. […] Absorbance was measured at 450 nm in a plate reader (Sunrise; Tecan, Maennedorf, Switzerland) and ESBA105 concentrations in samples were calculated by polynomial regression from a standard curve (GraphPad Prism 4.03; GraphPad Software, Inc., San Diego, Calif.). The minimum quantifiable concentration (LOQ) of ESBA105 was 5 ng/ml in serum and 33 ng/ml in brain tissue, respectively.

T1 sequence (P01375 77-233 limits assumed): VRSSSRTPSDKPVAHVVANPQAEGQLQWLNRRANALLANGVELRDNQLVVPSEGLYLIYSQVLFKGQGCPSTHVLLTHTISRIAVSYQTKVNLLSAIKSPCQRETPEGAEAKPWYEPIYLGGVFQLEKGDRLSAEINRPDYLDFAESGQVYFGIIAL

B1: ESBA105 (scFv)
scFv: MADIVMTQSPSSLSASVGDRVTLTCTASQSVSNDVVWYQQRPGKAPKLLIYSAFNRYTGVPSRFSGRGYGTDFTLTISSLQPEDVAVYYCQQDYNSPRTFGQGTKLEVKRGGGGSGGGGSGGGGSSGGGSQVQLVQSGAEVKKPGASVKVSCTASGYTFTHYGMNWVRQAPGKGLEWMGWINTYTGEPTYADKFKDRFTFSLETSASTVYMELTSLTSDDTAVYYCARERGDAMDYWGQGTLVTVSS
notes: also called ESBA105 scFv (α-TNFalpha); E105
binding result: binds
